Source: PMC7320042
Where two headings read alike, the source gives them in different places.

What was measured:
[1] = molecular target: recombinant trypsin (UniProt P00761); experiment: enzyme inhibition kinetics (Lineweaver-Burk); trypsin (1.35 mg/mL stock) activity on BAEE (0.01-0.075 mM) with and without SKTI or rSKTI (0.63 mg/mL stock); 25 °C, 67 mM phosphate buffer pH 7.6; KI from Vmax/V'max = 1 + [I]/KI
[2] = molecular target: recombinant trypsin (UniProt P00761); experiment: enzyme inhibition titration; trypsin (1.35 mg/mL) inhibited by increasing contents of rSKTI; residual activity on BAEE, 67 mM phosphate buffer pH 7.6, 25 °C; ratio worked out from the concentrations of trypsin and rSKTI
[3] = molecular target: recombinant trypsin (UniProt P00761); experiment: enzyme inhibition kinetics (Lineweaver-Burk); trypsin (1.35 mg/mL stock) activity on BAEE (0.01-0.075 mM) with and without SKTI or rSKTI (0.63 mg/mL stock); 25 °C, 67 mM phosphate buffer pH 7.6; KI from Vmax/V'max = 1 + [I]/KI; remark: listed apart in the source
[4] = molecular target: recombinant trypsin (UniProt P00761)

Sequence of UniProt P00761 (P00761 whole entry): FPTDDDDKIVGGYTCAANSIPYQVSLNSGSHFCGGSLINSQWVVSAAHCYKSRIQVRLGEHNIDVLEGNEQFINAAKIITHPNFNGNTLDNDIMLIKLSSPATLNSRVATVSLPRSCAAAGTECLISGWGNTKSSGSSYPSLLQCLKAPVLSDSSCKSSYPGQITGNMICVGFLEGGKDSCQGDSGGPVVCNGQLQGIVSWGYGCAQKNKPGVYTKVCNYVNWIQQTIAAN

| Ki [1] | stoichiometry N [2] | Ki [3] | inhibition of trypsin (1.35 mg/mL) activity on BAEE by increasing rSKTI: IC50, the amount of rSKTI when half trypsin activity was inhibited; activity completely inhibited at 1.5 mg/mL rSKTI [4] | Binder |
| --- | --- | --- | --- | --- |
| 2290 nM | 1 | 2200 nM | 500 µg/mL | recombinant soybean Kunitz trypsin inhibitor (natural protein) DFVLDNEGNPLENGGTYYILSDITAFGGIRAAPTGNERCPLTVVQSRNELDKGIGTIISSPYRIRFIAEGHPLSLKFDSFAVIMLCVGIPTEWSVVEDLPEGPAVKIGENKDAMDGWFRLERVSDDEFNNYKLVFCPQQAEDDKCGDIGISIDHDDGTRRLVVSKNKPLVVQFQKLDKESL |
|  |  | 1670 nM |  | natural soybean Kunitz trypsin inhibitor (natural protein) DFVLDNEGNPLENGGTYYILSDITAFGGIRAAPTGNERCPLTVVQSRNELDKGIGTIISSPYRIRFIAEGHPLSLKFDSFAVIMLCVGIPTEWSVVEDLPEGPAVKIGENKDAMDGWFRLERVSDDEFNNYKLVFCPQQAEDDKCGDIGISIDHDDGTRRLVVSKNKPLVVQFQKLDKESL |
